This is an account of results in paper PMC6393540, “A dual role in regulation and toxicity for the disordered N-terminus of the toxin GraT”.

The series concerns the target Δ22GraT in Δ22GraT2A2 complex;GraA-His in Δ22GraT2A2 complex (Pseudomonas putida;Pseudomonas putida, UniProt Q88MI5;Q88MI6 23-92;1-99, del2-22|). Description: ITC; macroscopic; ITC: 50 mM Tris pH 8.0, 250 mM NaCl, 2 mM β-mercaptoethanol (TCEP in purification for ITC), 25 °C; EMSA: 5 µM DNA, 30 min at room temperature, 6% native PAGE in TBE on ice. Particulars: protein: recombinant;recombinant; tags: ;C-terminal His6; chain copies: 2;2. On the technique in general: ITC needs no label: the signal is the heat of the interaction.

B1: graTA operator wild type 33 bp (dsDNA)
DNA 1: AAATTAACGAATAACGTTAAGCATTCAGCTCAT
DNA 2: ATGAGCTGAATGCTTAACGTTATTCGTTAATTT
On to B1, for which the Ka was found to be 2.3e+15 M^-2.
